# Results as given in patent EP1073891B1, “METHOD OF PREDICTING RECEPTOR MODULATING ACTIVITY” (Duke University, priority 1998, dated 1999).
# Residue numbers refer to the chain shown, from its start.
# What was measured:
# Test in all cases: Mammalian two-hybrid with ERα AF-2 mutants (Examples 4.3, 101.3)
# Type in all cases: cell-based
# Conditions in all cases: mammalian two-hybrid (Fig. 9)
# ER3X (D538N/E542Q/D545N) = biological target: T1, ER3X (D538N/E542Q/D545N) (Homo sapiens, UniProt P03372, D538N/D545N/E542Q)
# T1 construct: expressed in transfected cells
# T1 sequence (P03372 1-595 D538N/E542Q/D545N): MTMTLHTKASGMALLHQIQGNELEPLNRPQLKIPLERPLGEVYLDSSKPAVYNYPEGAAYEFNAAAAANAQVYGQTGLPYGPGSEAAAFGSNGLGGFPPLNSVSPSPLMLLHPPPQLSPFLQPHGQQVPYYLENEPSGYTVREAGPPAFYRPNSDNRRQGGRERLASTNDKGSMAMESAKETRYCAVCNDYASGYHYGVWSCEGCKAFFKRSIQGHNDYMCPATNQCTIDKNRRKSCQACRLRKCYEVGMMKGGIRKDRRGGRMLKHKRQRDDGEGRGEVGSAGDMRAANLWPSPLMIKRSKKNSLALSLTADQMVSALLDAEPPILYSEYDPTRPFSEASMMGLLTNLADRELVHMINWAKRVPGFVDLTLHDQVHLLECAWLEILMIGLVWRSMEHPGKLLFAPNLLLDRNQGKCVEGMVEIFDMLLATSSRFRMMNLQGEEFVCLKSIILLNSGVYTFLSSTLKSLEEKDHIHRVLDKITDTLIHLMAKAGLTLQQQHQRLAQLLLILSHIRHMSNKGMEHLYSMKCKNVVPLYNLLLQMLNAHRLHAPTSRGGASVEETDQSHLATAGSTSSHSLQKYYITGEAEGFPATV
# Excerpt: (§1) Peptide sequences representing each class was fused to the DNA binding domain (DBD) of the yeast transcription factor Ga14. HepG2 cells were then transiently transfected with expression vectors for ERα-VP16 and the Gal4-peptide fusion proteins. In addition, a luciferase reporter construct under the control of 5 copies of a Ga14 upstream enhancer element was also transfected along with a pCMV-β galactosidase vector to normalize for transfection efficiency. Transfection of the Ga14 DBD alone is included as control. Cells were then induced with various ligands as indicated in the figure and assayed for luciferase activity and β galactosidase activity. Normalized response was obtained by dividing the luciferase activity by the β galactosidase activity.
# (§2) Three ERα mutants were compared with wild-type ERα. ER-LL was characterized by mutations L540A/L541A. Mutant ER3X was characterized by mutations D538N/E542Q/D545N. Finally, mutant ER-535 STOP was truncated after residue V535. […] Experimental design is the same as in figure 7 except that either (A) ER3X (B) ERLL or (C) ER535-stop was analyzed for binding to conformation sensitive peptides.
# (§3) To test whether different LXXLL motif peptides interact within the same region of ER, mammalian two hybrid assays were used. Selected peptide sequences and different ER mutants (ER-LL, ER-3X, ER-535 STOP) were expressed as fusion proteins to Gal4DBD and VP16 (TAD), respectively.
# ER535-stop = biological target: T2, ER535-stop (Homo sapiens, UniProt P03372)
# T2 construct: mutant ER-535 STOP was truncated after residue V535; expressed in transfected cells
# T2 sequence (P03372 1-534): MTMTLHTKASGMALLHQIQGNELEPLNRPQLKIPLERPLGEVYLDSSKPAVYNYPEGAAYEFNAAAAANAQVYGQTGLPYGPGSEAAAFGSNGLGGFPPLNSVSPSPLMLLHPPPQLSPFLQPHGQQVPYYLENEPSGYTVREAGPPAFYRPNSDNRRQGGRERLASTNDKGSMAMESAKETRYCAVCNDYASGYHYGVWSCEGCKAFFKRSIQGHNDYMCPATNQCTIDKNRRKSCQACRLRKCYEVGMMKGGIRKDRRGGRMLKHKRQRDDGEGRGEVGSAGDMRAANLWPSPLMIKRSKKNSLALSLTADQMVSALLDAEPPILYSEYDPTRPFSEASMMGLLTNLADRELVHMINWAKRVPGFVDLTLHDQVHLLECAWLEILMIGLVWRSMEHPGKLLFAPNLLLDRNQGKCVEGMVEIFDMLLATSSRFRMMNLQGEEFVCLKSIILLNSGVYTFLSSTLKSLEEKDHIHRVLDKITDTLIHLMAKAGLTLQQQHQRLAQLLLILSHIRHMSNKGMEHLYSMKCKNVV
# Excerpt: as §1, §2, §3
# ERLL (L540A/L541A) = biological target: T3, ERLL (L540A/L541A) (Homo sapiens, UniProt P03372, L540A/L541A)
# T3 construct: expressed in transfected cells
# T3 sequence (P03372 1-595 L540A/L541A): T1 sequence (P03372 1-595 D538N/E542Q/D545N) with N538D, L540A, L541A, Q542E, N545D
# Excerpt: as §1, §2, §3
interaction with the ER3X mutant receptor (ER3X (D538N/E542Q/D545N)),interaction with the ER535-stop mutant receptor (ER535-stop),interaction with the ERLL mutant receptor (ERLL (L540A/L541A)),Sequence
largely unaffected,largely unaffected,largely unaffected,SSLTSRDFGSWYASR [α II]
retains some ability to engage,unable to interact,unable to interact,SSNHQSSRLIELLSR [α/β I]
loss of the tamoxifen specificity,loss of the tamoxifen specificity,loss of the tamoxifen specificity,SSPGSREWFKDMLSR [α/β V]
loss of the tamoxifen specificity,loss of the tamoxifen specificity,loss of the tamoxifen specificity,SSWDMHQFFWEGVSR [α/β III]
